The results in this text go back to US20020137918A1.

One may read the Kd as the equilibrium constant for the complex coming apart.

Assay [1] has as its target human IgG (human). Briefly: method not given.
Assay [2] has as its target human κ-chain (human). Briefly: method not given.
Assay [3] concerns the target human IgG (human). Nature of the assay: competitive ELISA at pH 8.0, PpL on the plate.
Assay [4] deals with human IgG (human). Briefly: competitive ELISA at pH 8.0, against the Kd of PpL (112 nM). On the technique in general: ELISA stands for enzyme-linked immunosorbent assay.
Assay [5] concerns the target human κ-chain (human). Nature of the assay: affinity chromatography, Y53F PpL coupled to agarose, human κ-chain eluted by rising pH.
For assay [6], the target named is human κ-chain (human). Briefly: affinity chromatography, Y53F PpL coupled to agarose, human κ-chain eluted by falling pH.
The target in assay [7] is human κ-chain (human). Briefly: affinity chromatography, Y53F PpL coupled to agarose, human κ-chain eluted by rising KCl.
The target of assay [8] is human κ-chain (human). Nature of the assay: Kd at pH 8, method not stated; one Kd given for the mutation, ticked in PpL and Y64W PpL.
Assay [9] addresses human IgG (human). Briefly: competitive ELISA, PpL on the plate, human IgG.
Assay [10] addresses human κ-chain (human). Nature of the assay: affinity chromatography, Y64W PpL coupled to agarose, human κ-chain eluted by rising pH.
For assay [11], the target named is human κ-chain (human). Briefly: tryptophan fluorescence, complex against the sum of the spectra of the single proteins.
The target of assay [12] is human κ-chain (human). Briefly: affinity chromatography, Y64W PpL coupled to agarose, human κ-chain eluted by falling pH.
The target in assay [13] is human κ-chain (human). Nature of the assay: affinity chromatography, Y64W PpL coupled to agarose, human κ-chain eluted by rising KCl.
The target of assay [14] is human IgG (human). Briefly: competitive ELISA, human IgG.
Assay [15] addresses human IgG (human). Nature of the assay: competitive ELISA; told as 'previously determined for PpL'.
Assay [16] has as its target human κ-chain (human). Nature of the assay: affinity chromatography, PpL coupled to agarose, human κ-chain eluted by rising pH.
For assay [17], the target named is human κ-chain (human). Nature of the assay: affinity chromatography, PpL coupled to agarose, human κ-chain eluted by falling pH.
Assay [18] deals with human κ-chain (human). Briefly: affinity chromatography, PpL coupled to agarose, human κ-chain eluted by rising KCl.
In assay [19] the target is human κ-chain (human). Nature of the assay: Kd at pH 8, method not stated; mutation ticked in Y64W PpL.
In assay [20] the target is human κ-chain (human). Briefly: Kd at pH 8, method not stated; one Kd given for the mutation, ticked in Y64W PpL and F39W PpL.
The target of assay [21] is human κ-chain (human). Briefly: tryptophan fluorescence, complex against the sum of the single proteins.
Assay [22] deals with human κ-chain (human). Nature of the assay: Kd at pH 8, method not stated; mutation ticked in PpL.
For assay [23], the target named is human κ-chain (human). Nature of the assay: competitive fluorescence titration, PpL2Asn as competitor.
Assay [24] deals with human κ-chain (human). Nature of the assay: fluorescence titration of F39W into 0.75 µM kappa chain, 18 °C, pH 8.
Assay [25] has as its target human κ-chain (human). Briefly: stopped flow fluorescence.
Assay [26] has as its target human κ-chain (human). Nature of the assay: stopped flow fluorescence, equilibrium Kd.
Assay [27] concerns the target human κ-chain (human). Briefly: stopped flow fluorescence, encounter complex.
In assay [28] the target is human κ-chain (human). Nature of the assay: Kd at pH 8, method not stated; mutation ticked in F39W PpL.
The target of assay [29] is human IgG (human). Nature of the assay: competitive ELISA, Wt PpL immobilized, human IgG.
For assay [30], the target named is human κ-chain (human). Briefly: isothermal titration calorimetry, 800 µM L57H PpL into 40 µM kappa light chain, 25 °C, pH 8.0. (In general: In ITC the heat of successive injections is recorded.)

For the molecule Y53F PpL, the dissociation constant Kd in assay [1] worked out at 2000 nM; in assay [3], 3200 nM; in assay [8] it was 1700 nM. For the same molecule, the fold reduction in affinity against PpL in assay [2] amounted to 27 fold. In addition, the fold increase in Kd against PpL in [4] worked out at 25 fold. Moreover, the elution condition, increased pH in assay [5] amounted to 9.6 pH. In assay [6], this molecule had an elution condition, decreased pH of 3.2 pH. In addition, the elution condition, increase KCl in assay [7] is 0.75 M.

B1: Y64W PpL (protein)
chain: MNIKFAGKETPETPEEPKEEVTIKVNLIFADGKIQTAEFKGTFEEATAEAYRYADLLAKVNGEWTADLEDGGNHMNIKFAGK
As to B1, in [9], the equilibrium dissociation constant (Kd) was found to be 129 nM. In addition, the elution condition, increased pH in assay [10] came to 10.1 pH. This molecule had a quench in fluorescence emission of the complex in assay [11] of 9%. In addition, the elution condition, decreased pH in [12] came to 2.03 pH. Besides, in assay [13], the elution condition, increase KCl is 0.96 M.

B2: PpL (protein)
chain: MNIKFAGKETPETPEEPKEEVTIKVNLIFADGKIQTAEFKGTFEEATAEAYRYADLLAKVNGEYTADLEDGGNHMNIKFAGK
For the molecule B2, the Kd in [14] amounted to 160 nM; in [15] it was 112 nM. In [16], the elution condition, increased pH was 10.2 pH. In assay [17], this molecule gave an elution condition, decreased pH of 1.96 pH. This molecule had an elution condition, increase KCl in assay [18] of 0.95 M.

B3: F39H Y64W PpL (protein)
chain: MNIKFAGKETPETPEEPKEEVTIKVNLIFADGKIQTAEHKGTFEEATAEAYRYADLLAKVNGEWTADLEDGGNHMNIKFAGK
B3 displayed a dissociation constant Kd in [8] of 1000 nM.

B4: L57D Y64W PpL (protein)
chain: MNIKFAGKETPETPEEPKEEVTIKVNLIFADGKIQTAEFKGTFEEATAEAYRYADLDAKVNGEWTADLEDGGNHMNIKFAGK
In turn, B4 yielded a Kd in [19] of 2000 nM.

B5: Q35E Y64W PpL (protein)
chain: MNIKFAGKETPETPEEPKEEVTIKVNLIFADGKIETAEFKGTFEEATAEAYRYADLLAKVNGEWTADLEDGGNHMNIKFAGK
In turn, B5 yielded a Kd in assay [20] of 300 nM.

B6: Y53F Y64W PpL (protein)
chain: MNIKFAGKETPETPEEPKEEVTIKVNLIFADGKIQTAEFKGTFEEATAEAYRFADLLAKVNGEWTADLEDGGNHMNIKFAGK
Regarding B6, the Kd stood at 3320 nM in assay [3] and 1700 nM in [8]. Also, in assay [21], the increase in fluorescence signal of the complex was 10%.

B7: F39W PpL (protein)
chain: MNIKFAGKETPETPEEPKEEVTIKVNLIFADGKIQTAEWKGTFEEATAEAYRYADLLAKVNGEYTADLEDGGNHMNIKFAGK
As to B7, the Kd was 160 nM in assay [22] and 161 nM in assay [24]. Further, the Kdapp in the presence of 5 µM PpL2Asn in assay [23] came out at 310 nM.

B8: L57H Y64W PpL (protein)
chain: MNIKFAGKETPETPEEPKEEVTIKVNLIFADGKIQTAEFKGTFEEATAEAYRYADLHAKVNGEWTADLEDGGNHMNIKFAGK
Turning to B8, the fold of equilibrium Kd against Y64W PpL in assay [25] is 30 fold. In addition, in assay [25], the fold of pre-equilibrium Kd against Y64W PpL is 2 fold. The Kd in [26] amounted to 5400 nM; in assay [8], 6000 nM. The molecule further displayed a pre-equilibrium Kd in [27] of 6800 nM.

B9: Q35E F39W PpL (protein)
chain: MNIKFAGKETPETPEEPKEEVTIKVNLIFADGKIETAEWKGTFEEATAEAYRYADLLAKVNGEYTADLEDGGNHMNIKFAGK
B9: the Kd in [20] was 300 nM.

B10: F39H PpL (protein)
chain: MNIKFAGKETPETPEEPKEEVTIKVNLIFADGKIQTAEHKGTFEEATAEAYRYADLLAKVNGEYTADLEDGGNHMNIKFAGK
With B10, the Kd in assay [8] came out at 1000 nM.

B11: Y53H F39W PpL (protein)
chain: MNIKFAGKETPETPEEPKEEVTIKVNLIFADGKIQTAEWKGTFEEATAEAYRHADLLAKVNGEYTADLEDGGNHMNIKFAGK
B11 came in with a Kd in assay [28] of 500 nM.

B12: L57H PpL (protein)
chain: MNIKFAGKETPETPEEPKEEVTIKVNLIFADGKIQTAEFKGTFEEATAEAYRYADLHAKVNGEYTADLEDGGNHMNIKFAGK
For B12, the results for the dissociation constant (Kd) in [29], in [8] and in assay [30] were 4200 nM, 6000 nM and 5200 nM, respectively.

B13: N76D F39W PpL (protein)
chain: MNIKFAGKETPETPEEPKEEVTIKVNLIFADGKIQTAEWKGTFEEATAEAYRYADLLAKVNGEYTADLEDGGNHMDIKFAGK
As for B13, in assay [28], the Kd turned out to be 400 nM.
